The target in one test is human Mdm2 (1–125) (human). Description: ITC. On the technique in general: In ITC the heat of successive injections is recorded.
Test [1] concerns the target site-specific mono-biotinylated Mdm2 (human, biotin (site-specific, mono, by sortase-mediated ligation; site not stated)). The test is described as follows: SPR.

Bridge positions count the residues as written; N and C are the ends. Square brackets hold non-standard residues; d marks the D form. Primed or numbered codes have the meaning given here. R8 = C=CCCCCCC[C@@](C)(N)C(=O)O; S5 = C=CCCC[C@](C)(N)C(=O)O; Cba′ = not defined here

site-specific mono-biotinylated Mdm2 (human, biotin (site-specific, mono, by sortase-mediated ligation; site not stated)), sequence (chain, as listed by the source): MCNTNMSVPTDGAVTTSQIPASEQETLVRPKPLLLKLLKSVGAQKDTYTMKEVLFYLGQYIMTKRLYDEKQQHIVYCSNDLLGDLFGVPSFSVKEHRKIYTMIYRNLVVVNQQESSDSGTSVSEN
human Mdm2 (1–125) (human), sequence (chain, as listed by the source): as above

B1: MP-292 (peptide)
chain: Ac-LTF[R8]EYWQL[Cba′][S5]SAA-NH2
modifications: staple 4-11; reading uncertain
In the case of B1, the results for the Kd (with human Mdm2 (1–125); in test [1]) were less than 20 nM and 1.4 nM, respectively.

Usually Kd stands for the free concentration of one partner at which half of the binding sites on the other are occupied at equilibrium, for simple one-to-one binding.

The record behind these values is publication PMC6632053 (2019).
